Source: US20180161428A1 (HARPOON THERAPEUTICS, published 2018)

Key:
hFc · flag · hPSMA = target: T1, hFc · flag · hPSMA (human, UniProt Q04609 44-750); assay: BLI (OCTET), expression supernatants, hFc.flag.hPSMA
T1 construct: The order of the parts follows the printed label; also called human PSMA; h PSMA-Fc; not shown: human Fc (hFc); flag tag
Description: Supernatants were used to estimate Kd, kon, and koff (or kdis) to human and cynomolgus PSMA using the OCTET® system. […] The parental sdAb is listed as Anti-PSMA wt sdAb.6his in Table 1.

[1] = target: T2, Tool TriTAC high aff. - C236; assay: BLI (Octet), cynomolgus albumin (CSA)
T2 construct: Trispecific single chain: anti-PSMA sdAb, anti-HSA sdAb, anti-CD3 scFv, 6xHis (the tag is part of the entry); also called Tool PSMA TriTAC; C00236

[2] = target: T3, TriTAC CD3 high aff. - C324; assay: BLI (Octet), cynomolgus albumin (CSA)
T3 construct: Trispecific single chain: anti-PSMA sdAb, anti-HSA sdAb, anti-CD3 scFv, 6xHis (the tag is part of the entry); also called PSMA TriTAC CD3 high aff; C00324

PSMA TriTAC (HDS)-C363 [3] = target: T4, PSMA TriTAC (HDS)-C363; assay: BLI (Octet), cynomolgus albumin (CSA)
T4 construct: Trispecific single chain: anti-PSMA sdAb, anti-HSA sdAb, anti-CD3 scFv, 6xHis (the tag is part of the entry); also called PSMA HDS TriTAC C363; C00363

PSMA-TriTAC (p8)-C362 [4] = target: T5, PSMA-TriTAC (p8)-C362; assay: BLI (Octet), cynomolgus albumin (CSA)
T5 construct: Trispecific single chain: anti-PSMA sdAb, anti-HSA sdAb, anti-CD3 scFv, 6xHis (the tag is part of the entry); also called PSMA p8 TriTAC C362; C00362

PSMA TriTAC (HTS)-C364 [5] = target: T6, PSMA TriTAC (HTS)-C364; assay: BLI (Octet), cynomolgus albumin (CSA)
T6 construct: Trispecific single chain: anti-PSMA sdAb, anti-HSA sdAb, anti-CD3 scFv, 6xHis (the tag is part of the entry); also called PSMA HTS TriTAC C364; C00364

[6] = target: T2, Tool TriTAC high aff. - C236; assay: BLI (Octet), cynomolgus CD3
[7] = target: T3, TriTAC CD3 high aff. - C324; assay: BLI (Octet), cynomolgus CD3
PSMA TriTAC (HDS)-C363 [8] = target: T4, PSMA TriTAC (HDS)-C363; assay: BLI (Octet), cynomolgus CD3
PSMA-TriTAC (p8)-C362 [9] = target: T5, PSMA-TriTAC (p8)-C362; assay: BLI (Octet), cynomolgus CD3
PSMA TriTAC (HTS)-C364 [10] = target: T6, PSMA TriTAC (HTS)-C364; assay: BLI (Octet), cynomolgus CD3
PSMA TriTAC (HDS)-C363 [11] = target: T4, PSMA TriTAC (HDS)-C363; assay: BLI (Octet), cynomolgus PSMA
PSMA TriTAC (HTS)-C364 [12] = target: T6, PSMA TriTAC (HTS)-C364; assay: BLI (Octet), cynomolgus PSMA
PSMA TriTAC (HDS)-C363 [13] = target: T4, PSMA TriTAC (HDS)-C363; assay: BLI (Octet), human CD3-Flag-Fc on anti-human IgG Fc biosensors
PSMA-TriTAC (p8)-C362 [14] = target: T5, PSMA-TriTAC (p8)-C362; assay: as above
PSMA TriTAC (HTS)-C364 [15] = target: T6, PSMA TriTAC (HTS)-C364; assay: as above
[16] = target: T3, TriTAC CD3 high aff. - C324; assay: as above

T1 sequence (Q04609 44-750 limits assumed): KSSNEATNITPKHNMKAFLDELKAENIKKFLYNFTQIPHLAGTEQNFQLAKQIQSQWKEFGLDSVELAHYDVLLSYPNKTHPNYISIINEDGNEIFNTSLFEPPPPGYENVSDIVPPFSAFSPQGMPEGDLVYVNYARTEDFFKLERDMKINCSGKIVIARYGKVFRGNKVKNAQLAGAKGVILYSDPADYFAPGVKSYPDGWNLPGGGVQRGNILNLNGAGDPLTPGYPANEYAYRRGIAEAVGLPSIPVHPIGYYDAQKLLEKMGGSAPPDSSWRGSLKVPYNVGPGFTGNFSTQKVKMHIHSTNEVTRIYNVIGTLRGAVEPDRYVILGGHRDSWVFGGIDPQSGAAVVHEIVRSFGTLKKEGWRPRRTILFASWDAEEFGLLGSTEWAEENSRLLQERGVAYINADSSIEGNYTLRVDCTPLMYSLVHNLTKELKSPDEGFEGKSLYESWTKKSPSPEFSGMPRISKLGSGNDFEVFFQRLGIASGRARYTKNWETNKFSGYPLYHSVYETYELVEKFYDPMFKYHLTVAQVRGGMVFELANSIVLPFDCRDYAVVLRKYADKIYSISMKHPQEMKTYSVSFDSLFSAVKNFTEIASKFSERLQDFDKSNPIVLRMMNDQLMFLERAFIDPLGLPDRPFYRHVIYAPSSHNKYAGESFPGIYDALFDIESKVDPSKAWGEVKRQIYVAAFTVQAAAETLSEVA
T5 sequence (chain, as listed by the source): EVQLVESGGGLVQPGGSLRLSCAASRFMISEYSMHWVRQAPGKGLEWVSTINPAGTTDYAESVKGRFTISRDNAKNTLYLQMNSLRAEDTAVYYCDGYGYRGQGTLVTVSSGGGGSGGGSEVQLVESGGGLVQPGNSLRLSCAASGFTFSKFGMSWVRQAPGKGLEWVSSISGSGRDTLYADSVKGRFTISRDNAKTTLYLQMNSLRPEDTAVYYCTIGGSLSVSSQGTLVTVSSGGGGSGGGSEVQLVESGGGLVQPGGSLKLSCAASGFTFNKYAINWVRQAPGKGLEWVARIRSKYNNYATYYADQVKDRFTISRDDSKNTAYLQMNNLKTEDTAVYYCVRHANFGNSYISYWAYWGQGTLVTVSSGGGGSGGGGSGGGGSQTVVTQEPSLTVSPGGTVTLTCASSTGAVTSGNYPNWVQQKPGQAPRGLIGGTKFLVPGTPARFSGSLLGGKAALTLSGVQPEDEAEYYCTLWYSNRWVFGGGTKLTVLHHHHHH

Kd (hFc · flag · hPSMA) [nM] | koff (hFc · flag · hPSMA) [s⁻¹] | kon (hFc · flag · hPSMA) [M⁻¹ s⁻¹] | Binder | also measured
6.7 | 0.00538 | 800000 | anti-PSMA S33H T50D G97SsdAb.6his (VHH) VHH: EVQLVESGGGLVQPGGSLTLSCAASRFMISEYHMHWVRQAPGKGLEWVSDINPAGTTDYAESVKGRFTISRDNAKNTLYLQMNSLKPEDTAVYYCDSYGYRGQGTQVTVSS | 
5.6 | 0.00461 | 822000 | anti-PSMA T56Q sdAb.6his (VHH) VHH: EVQLVESGGGLVQPGGSLTLSCAASRFMISEYSMHWVRQAPGKGLEWVSTINPAGQTDYAESVKGRFTISRDNAKNTLYLQMNSLKPEDTAVYYCDGYGYRGQGTQVTVSS | 

The next lines start with the binder.

Binder | Kd (hFc · flag · hPSMA) [nM] | koff (hFc · flag · hPSMA) [s⁻¹] | kon (hFc · flag · hPSMA) [M⁻¹ s⁻¹] | also measured
Anti-PSMA wt sdAb.6his (VHH, Tested as supernatant of Expi293 cells; also called parental sdAb; parental anti-PSMA single domain antibody) VHH: EVQLVESGGGLVQPGGSLTLSCAASRFMISEYSMHWVRQAPGKGLEWVSTINPAGTTDYAESVKGRFTISRDNAKNTLYLQMNSLKPEDTAVYYCDGYGYRGQGTQVTVSS | 15 | 0.0132 | 877000 | 
anti-PSMA E31P sdAb.6his (VHH) VHH: EVQLVESGGGLVQPGGSLTLSCAASRFMISPYSMHWVRQAPGKGLEWVSTINPAGTTDYAESVKGRFTISRDNAKNTLYLQMNSLKPEDTAVYYCDGYGYRGQGTQVTVSS | 9.5 | 0.00366 | 383000 | 
anti-PSMA G55K sdAb.6his (VHH) VHH: EVQLVESGGGLVQPGGSLTLSCAASRFMISEYSMHWVRQAPGKGLEWVSTINPAKTTDYAESVKGRFTISRDNAKNTLYLQMNSLKPEDTAVYYCDGYGYRGQGTQVTVSS | 4.5 | 0.00248 | 556000 | 
anti-PSMA S33H G97SsdAb.6his (VHH) VHH: EVQLVESGGGLVQPGGSLTLSCAASRFMISEYHMHWVRQAPGKGLEWVSTINPAGTTDYAESVKGRFTISRDNAKNTLYLQMNSLKPEDTAVYYCDSYGYRGQGTQVTVSS | 0.21 | 0.000197 | 936000 | 
CSA (other, cynomolgus, UniProt A2V9Z4 25-608, looked up, also called cynomolgus serum albumin) DTHKSEVAHRFKDLGEEHFKGLVLVAFSQYLQQCPFEEHVKLVNEVTEFAKTCVADESAENCDKSLHTLFGDKLCTVATLRETYGEMADCCAKQEPERNECFLQHKDDNPNLPPLVRPEVDVMCTAFHDNEATFLKKYLYEVARRHPYFYAPELLFFAARYKAAFAECCQAADKAACLLPKLDELRDEGKASSAKQRLKCASLQKFGDRAFKAWAVARLSQKFPKAEFAEVSKLVTDLTKVHTECCHGDLLECADDRADLAKYMCENQDSISSKLKECCDKPLLEKSHCLAEVENDEMPADLPSLAADYVESKDVCKNYAEAKDVFLGMFLYEYARRHPDYSVMLLLRLAKAYEATLEKCCAAADPHECYAKVFDEFQPLVEEPQNLVKQNCELFEQLGEYKFQNALLVRYTKKVPQVSTPTLVEVSRNLGKVGAKCCKLPEAKRMPCAEDYLSVVLNRLCVLHEKTPVSEKVTKCCTESLVNRRPCFSALELDEAYVPKAFNAETFTFHADMCTLSEKEKQVKKQTALVELVKHKPKATKEQLKGVMDNFAAFVEKCCKADDKEACFAEEGPKFVAASQAALA |  |  |  | Kd [1]: 25.4 nM; Kd [2]: 9.7 nM; Kd (PSMA TriTAC (HDS)-C363 [3]): 8.4 nM; Kd (PSMA-TriTAC (p8)-C362 [4]): 6.6 nM; Kd (PSMA TriTAC (HTS)-C364 [5]): 8.6 nM
cynomolgus CD3 (receptor, UniProt Q95LI5 22-117, looked up, The methods describe only the human CD3-Flag-Fc format; also called cyno CD3e) QDGNEEMGSITQTPYQVSISGTTVILTCSQHLGSEAQWQHNGKNKEDSGDRLFLPEFSEMEQSGYYVCYPRGSNPEDASHHLYLKARVCENCMEMD |  |  |  | Kd [6]: 4.7 nM; Kd [7]: 5.8 nM; Kd (PSMA TriTAC (HDS)-C363 [8]): 5.2 nM; Kd (PSMA-TriTAC (p8)-C362 [9]): 4.3 nM; Kd (PSMA TriTAC (HTS)-C364 [10]): 3.8 nM
cynomolgus PSMA (other, the methods describe only the human PSMA-Fc format; also called cyno PSMA) KSSSEATNITPKHNMKAFLDELKAENIKKFLHNFTQIPHLAGTEQNFQLAKQIQSQWKEFGLDSVELTHYDVLLSYPNKTHPNYISIINEDGNEIFNTSLFEPPPAGYENVSDIVPPFSAFSPQGMPEGDLVYVNYARTEDFFKLERDMKINCSGKIVIARYGKVFRGNKVKNAQLAGATGVILYSDPADYFAPGVKSYPDGWNLPGGGVQRGNILNLNGAGDPLTPGYPANEYAYRRGIAEAVGLPSIPVHPIGYYDAQKLLEKMGGSASPDSSWRGSLKVPYNVGPGFTGNFSTQKVKMHIHSTSEVTRIYNVIGTLRGAVEPDRYVILGGHRDSWVFGGIDPQSGAAVVHEIVRSFGTLKKEGWRPRRTILFASWDAEEFGLLGSTEWAEENSRLLQERGVAYINADSSIEGNYTLRVDCTPLMYSLVYNLTKELESPDEGFEGKSLYESWTKKSPSPEFSGMPRISKLGSGNDFEVFFQRLGIASGRARYTKNWETNKFSSYPLYHSVYETYELVEKFYDPMFKYHLTVAQVRGGMVFELANSVVLPFDCRDYAVVLRKYADKIYNISMKHPQEMKTYSVSFDSLFSAVKNFTEIASKFSERLRDFDKSNPILLRMMNDQLMFLERAFIDPLGLPDRPFYRHVIYAPSSHNKYAGESFPGIYDALFDIESKVDPSQAWGEVKRQISIATFTVQAAAETLSEVA |  |  |  | Kd (PSMA TriTAC (HDS)-C363 [11]): 540 nM; Kd (PSMA TriTAC (HTS)-C364 [12]): 663 nM
human CD3-Flag-Fc protein (Fc fusion, UniProt P07766 23-126, looked up, also called CD3e; not shown: Flag tag) DGNEEMGGITQTPYKVSISGTTVILTCPQYPGSEILWQHNDKNIGGDEDDKNIGSDEDHLSLKEFSELEQSGYYVCYPRGSKPEDANFYLYLRARVCENCMEMD |  |  |  | Kd (PSMA TriTAC (HDS)-C363 [13]): 8 nM; Kd (PSMA-TriTAC (p8)-C362 [14]): 8.3 nM; Kd (PSMA TriTAC (HTS)-C364 [15]): 7.7 nM; Kd [16]: 7.4 nM
